Test results reported in FireProtDB (doi:10.1021/bi00548a004).

B1: Tryptophan synthase alpha chain, P0A877 (parent)
chain: MERYESLFAQLKERKEGAFVPFVTLGDPGIEQSLKIIDTLIEAGADALELGIPFSDPLADGPTIQNATLRAFAAGVTPAQCFEMLALIRQKHPTIPIGLLMYANLVFNKGIDEFYAQCEKVGVDSVLVADVPVEESAPFRQAALRHNVAPIFICPPNADDDLLRQIASYGRGYTYLLSRAGVTGAENRAALPLNHLVAKLKEYNAAPPLQGFGISAPDQVKAAIDAGAAGAISGSAIVKIIEQHINEPEKMLAALKVFVQPMKAATRS

Variants of: B1
Details: Escherichia coli (strain K12), pH 7.8, Thermal, DSC, Sodium phosphate 1 mM, reversible: yes, structure 1WQ5, whole UniProt chain shown

| Variant | ddG of mutation (higher = less stable) (57.8 °C, EDTA 0.2 mM) [kcal/mol] | heat capacity change of unfolding (57.8 °C, EDTA 0.2 mM) [kcal/mol/K] | Tm [°C] | change of melting temperature, mutant - wild type (higher = more stable) [°C] | heat capacity change of unfolding [kcal/mol/K] | unfolding enthalpy (calorimetric) [kcal/mol] | unfolding enthalpy (van 't Hoff) [kcal/mol] |
| --- | --- | --- | --- | --- | --- | --- | --- |
| G211E | -0.6 | 2.7 | 59.6 | 1.8 | 2.7 | 109 | 107 |
| G211R | -0.1 | 2.8 | 58 | 0.2 | 2.8 | 111 | 113 |
